Assay results as given in article PMC2653193, “A Unique Dual Activity Amino Acid Hydroxylase in Toxoplasma gondii” (PLoS ONE, 2009).
Where a chain is given by its changes, count along the chain named.

B1: TgAaaH1 (Toxoplasma gondii) (protein)
chain: AVPQESVAAINCPQSRFSAFGCGLFRLSCQNKALSLPATFHISVARCQREERRRTTLQGRPFVAAREFASSVAESTTTANGANLTCSFSEGREGTREDPLRTRSPQQTKVQGRTSDGVASGGATEGPSTRASTRRLSINNVSCQIEDRVGAISELAAIFAAYNVNITEIRSSPDPLDLRKMTVSISFEGEWESENATQLIDRLGSYCVAFTRGSPADVPWFPRSPEDLDRIASHTLDAGKDLEADHPGFHDVIYRKRRQEIASCAENHKAGRAVGIIDYTPRETATWKHVWGILTDLYPTLACNEYNEVLAGLRDARVYGPDTIPQVAEVNEYIKAKTGFTLRPVPGLLSARDFMNALAFRTFFSTQYIRHHSAPLYTPEPDVVHELLGHAPLLANPDFADFSQLLGLASLGASEEDIARLQRLYWFSVEFGLLCNPGNEMELAAYGAGLLSSPGELRHSTCPTNGKLVVRQWRPEDAAQQDFPITTYQPVLFVAKSLKDARDSLLRYIQNHIHKPFATRYDNATRTLHVSTEVRALPVSLRF
notes: N-terminal 23 residues (predicted signal peptide) removed; N-terminal 6xHis tag (pET 45b) kept; E. coli BL21; full-length ORF 565 residues; primer text says begins at residue 23
B2: TgAaaH2 (Toxoplasma gondii) (protein)
chain: B1 chain with V469E, K496E, E533D, R535H, A536M, L537P, R542K, F543I
notes: as for B1

How the values were obtained:
TgAaaH2 = target: T1, TgAaaH2 (Toxoplasma gondii, UniProt B2L7T2); assay: coupled dihydropteridine reductase assay, NADH oxidation at […] nm; assay type: biochemical; details: 50 µM amino acid (tyrosine in Figure 4B), 0-500 µM 6-MPH4, 500 µM NADH, 10 µM ferrous ammonium sulphate, 50 mM HEPES, pH 7.5, 32°C; range printed jointly for both enzymes, not assigned
T1 construct: gene AaaH2; N-terminal 23 residues (predicted signal peptide) removed; N-terminal 6xHis tag (pET 45b) kept; E. coli BL21; full-length ORF 565 residues; primer text says begins at residue 23
T1 sequence (B2L7T2 23-565): B1 chain with V469E, K496E, E533D, R535H, A536M, L537P, R542K, F543I

TgAaaH1 = target: T2, TgAaaH1 (Toxoplasma gondii, UniProt B2L7T1); assay: as above; assay type: biochemical; details: 50 µM amino acid (tyrosine in Figure 4B), 0-500 µM 6-MPH4, 500 µM NADH, 10 µM ferrous ammonium sulphate, 50 mM HEPES, pH 7.5, 32°C; range printed jointly for both enzymes, not assigned
T2 construct: gene AaaH1; N-terminal 23 residues (predicted signal peptide) removed; N-terminal 6xHis tag (pET 45b) kept; E. coli BL21; full-length ORF 565 residues; primer text says begins at residue 23
T2 sequence (B2L7T1 23-565): B1 chain

purified protein [1] = substrate: N[C@@H](Cc1ccc(O)cc1)C(=O)O; assay: purified protein; assay type: biochemical, Toxoplasma gondii; details: 500 µM 6-MPH4, 500 µM NADH, 10 µM ferrous ammonium sulphate, 50 mM HEPES, pH 7.5, 32°C, 0-200 µM tyrosine, substrate inhibition at high concentration
purified protein [2] = substrate: N[C@@H](Cc1ccccc1)C(=O)O; assay: purified protein; assay type: biochemical, Toxoplasma gondii; details: 500 µM 6-MPH4, 500 µM NADH, 10 µM ferrous ammonium sulphate, 50 mM HEPES, pH 7.5, 32°C, 0-200 µM phenylalanine, substrate inhibition at high concentration

| Molecule | Km (TgAaaH2) | Km (TgAaaH1) | Km (purified protein [1]) | Vmax (purified protein [1]) | Km (purified protein [2]) | Vmax (purified protein [2]) |
| --- | --- | --- | --- | --- | --- | --- |
| CC1CNc2nc(N)[nH]c(=O)c2N1 (stereo not shown) [6-MPH4] | 310 to 318 µM | 310 to 318 µM | – | – | – | – |
| B1 | – | – | 1.25 ± 0.69 µM | 0.137 ± 0.014 µmol/min/mg | 2.45 ± 1.87 µM | 0.125 ± 0.015 µmol/min/mg |
| B2 | – | – | 5.50 ± 3.26 µM | 0.123 ± 0.001 µmol/min/mg | 14.8 ± 6.4 µM | 0.145 ± 0.037 µmol/min/mg |
